Experimental findings from patent US20160257763A1 (Zymeworks, published 2016) are described below.

Experiment [1] addresses T1, Recombinant human EGFR-ED (human, UniProt P00533 25-645).
T1 construct: extracellular domain; also called extracellular domain (ED) of EGFR
Description: SPR (ProteOn XPR36); v1323 captured on immobilized anti-human IgG, recombinant human EGFR-ED injected as analyte; global 1:1 Langmuir fit. The method, then: (§1) The ability of v1323 comprising an EGFR binding domain to bind to the extracellular domain (ED) of EGFR was tested by Surface Plasmon Resonance (SPR) using a ProteOn XPR36 system from BIO-RAD.
(§2) Approximately 3000 RU of anti-human IgG 25 ug/ml was immobilized on a GLC chip using standard amine coupling. Exemplary SDACs were captured on the anti-human IgG immobilized chip to capture level of approximately 700 RU. Recombinant human EGFR-ED was diluted in running buffer and injected at a flow rate of 50 μl/min for 2 minutes, followed by dissociation for another 4 minutes. Sensograms were fit globally to a 1:1 Langmuir binding model. All experiments were conducted at room temperature.

Experiment [2] addresses T1, Recombinant human EGFR-ED. As to the kind of experiment: SPR, v1323 captured by anti-human IgG, EGFR-ED injected, 1:1 Langmuir fit. The method, then: as §1, §2

B1: v1323, monovalent anti-EGFR antibody (EG2) (Fc fusion)
VHH: QVKLEESGGGLVQAGDSLRVSCAASGRDFSDYVMGWFRQAPGKEREFVAAISRNGLTTRYADSVKGRFTISRDNDKNMVYLQMNSLKPEDTAVYYCAVNSAGTYVSPRSREYDYWGQGTQVTVSS
notes: EU numbering; no light chain, no CH1; also called exemplary heteromultimer; not shown: hinge/linker between the VhH and the Fc (not described), and with it the heterodimer Fc carrier, left out of the chains
In the case of B1, in experiment [1], the Kd came to 4.05 nM, the koff was found to be 0.004 s⁻¹ and the kon was found to be 989000 M⁻¹ s⁻¹. Besides, in experiment [2], the Kd lay within 3 to 4.5 nM.
